From the DeepSol protein solubility set

Assay: soluble on expression in E. coli; label from the status in PepcDB or PDB records

| Sequence | soluble on expression in E. coli |
| --- | --- |
| MGHHHHHHSHMKQTAESIRDRFMKLGIDVPVEDIESRLDELIKKFKVPSNEAQRSVTNYFLKKYSIPKNEFYVRQAEPQLTKIVDIVENGQWANLKAKVIQLWENTHESISQVGLLGDETGIIKFTIWKNAELPLLEQGESYLLRSVVVGEYNDRFQVQVNKNSSIEKLSEPIEVGGGDFTPAAREAELRNIADLTGNQWATVRGKVIQLWENSHESIEQAGLIGDETGVIKFTNWASSELPDMEEGRSYLLKNVVVNEWNGKAQVQLNRSSSIEELDEDIEVRTSMSSYFGAMVDIQTGSGLIKRCPECKRALVKGACAEHGKVKGEYDLRIKAVLDSGTSTQDALINRELTEELSGISLDSAIAMAADALDPGVVLDKLKHELVGRYYTITGHKLDRYILVESITPRTSLDRELLDQMLAEPIAQPEVE | soluble |
| MGHHHHHHSHMKYGNPNYGGMKGILSNSWKRRYHSRRIQRDVIKKRALIGDDVGLTSYKHRHSGLVNVPEEPIEEEEEEEEEEEEEEEEDQDMDADDRVVVEYHEELPALKQPRERSASRRSSASSSDSDEMDYDLELKMISTPSPKKSMKMTMYADEVESQLKNIRNSMRADSVSSSNIKNRIGNKLPPEKFADVRHLLDEKRQHSRPRPPVSSTKSDIRQRLGKRPHSPEKAFSSNPVVRREPSSDVHSRLGVPRQDSKGLYADTREKKSGNLWTRLGSAPKTKEKNTKKVDHRAPGAEEDDSELQRAWGALIKEKEQSRQKKSRLDNLPSLQIEVSRESSSGSEAES | not soluble |
| MGHHHHHHSHMLKKMGEAVARVARKVNETVESGSDTLDLAECKLVSFPIGIYKVLRNVSGQIHLITLANNELKSLTSKFMTTFSQLRDVPVEKLAAMPALRSINLRFNPLNAEVRVIAPPLIKFDMLMSPEGARAPLP | not soluble |
| MGHHHHHHSHMMYAQSKGIYYVQLEDDIVAKPNYLSTMKNFALQQPSEDWMILEFSQLGFIGKMFKSLDLSLIVEFILMFYRDKPIDWLLDHILWVKVCNPEKDAKHCDRQKANLRIRFKPSLFQHVGTHSSLAGKIQKLKDKDFGKQALRKEHVNPPAEVSTSLKTYQHFTLEKAYLREDFFWAFTPAAGDFIRFRFFQPLRLERFFFRSGNIEHPEDKLFNTSVEVLPFDNPQSDKEALQEGRTATLRYPRSPDGYLQIGSFYKGVAEGEVDPAFGPLEALRLSIQTDSPVWVILSEIFLKKAD | soluble |
| MGHHHHHHSHMNIPLEELQRNLQFHAFISYSGHDSFWVKNELLPNLEKEGMQICLHERNFVPGKSIVENIITCIEKSYKSIFVLSPNFVQSEWCHYELYFAHHNLFHEGSNSLILILLEPIPQYSIPSSYHKLKSLMARRTYLEWPKEKSKRGLFWANLRAAINIKLTEQAK | soluble |
| MGHHHHHHSHMPKGIALALGLNAVDPKHYGGWAGKLNACEADAEDMAAIAAERGFAVTTLMTKAATRAKVIDAIGKAAKALGKGDIFMLSYSGHGGQVPDTSNDEPDGVDETWCLFDGELIDDELYALLGKFAAGVRVLVFSDSCHSGTVVKMAYYNGTTAARSAGPDEGEIRYRAMPQSVAMRTYRANREFYDTIQQKTKKVDLADVKASILLISGCQDNQLSQDGAFNGAFTGQLLRVWKNGLYKGSYRSFHKAIVRRMPPDQTPNFFTAGTPDPAFLKQRPFTV | soluble |
| MGHHHHHHSHMPKSQVKRQEVISELLVTEAAHVRMLRVLHDLFFQPMAECLFFPLEELQNIFPSLDELIEVHSLFLDRLMKRRQESGYLIEEIGDVLLARFDGAEGSWFQKISSRFCSRQSFALEQLKAKQRKDPRFCAFVQEAESRPRCRRLQLKDMIPTEMQRLTKYPLLLQSIGQNTEEPTEREKVELAAECCREILHHVNQAVRDMEDL | not soluble |
| MGHHHHHHSHMPLLVEGRRVRLPQSAGDLVRAHPPLEERARLLRGQSVQQVGPQGLLYVQQRELAVTSPKDGSISILGSDDATTCHIVVLRHTGNGATCLTHCDGTDTKAEVPLIMNSIKSFSDHAQCGRLEVHLVGGFSDDRQLSQKLTHQLLSEFDRQEDDIHLVTLCVTELNDREENENHFPVIYGIAVNIKTAEIYRASFQDRGPEEQLRAARTLAGGPMISIYDAETEQLRIGPYSWTPFPHVDFWLHQDDKQILENLSTSPLAEPPHFVEHIRSTLMFLKKHPSPAHTLFSGNKALLYKKNEDGLWEKISSPGS | not soluble |
| MGHHHHHHSHMQHPQTHRQLKETLYETIIGYFDKGKMWEEAISLCKELAEQYEMEIFDYELLSQNLIQQAKFYESIMKILRPKPDYFAVGYYGQGFPSFLRNKVFIYRGKEYERREDFQMQLMTQFPNAEKMNTTSAPGDDVKNAPGQYIQCFTVQPVLDEHPRFKNKPVPDQIINFYKSNYVQRFHYSRPVRRGTVDPENEFASMWIERTSFVTAYKLPGILRWFEVVHMSQTTISPLENAIETMSTANEKILMMINQYQSDETLPINPLSMLLNGIVDPAVMGGFAKYEKAFFTEEYVRDHPEDQDKLTHLKDLIAWQIPFLGAGIKIHEKRVSDNLRPFHDRMEECFKNLKMKVEKEYGVREMPDFDD | soluble |
| MGHHHHHHSHMRFFHWFSKWRKLHRDQEYEVTWYISWSPCTKCTRDMATFLAEDPKVTLTIFVARLYYFWDPDYQEALRSLCQKRDGPRATMKIMNYDEFQHCWSKFVYSQRELFEPWNNLPKYYILLHIMLGEILR | not soluble |
| MGHHHHHHSHMRVFALQLESFKENLMQSLFNSIPKKSVIVLPEYVINPFFHHNMGLDVNEISDQSARAVEFLSQKCEELDLIVSAPVLLEEHSKIYKKIALISKESVKYYTQQRLIPYPHWDEESFFDNEKSAFKELLVFERDGLKFAPLFGFEAHFDEIWVQAKNQGVDVVLLSSVATFESNERWRLLCQMRAFCASCVVVRANRIGAYRQIIVEEDQKNEFLWKFYGDSFVALPNGAIEDSLEGKMGALNAQIDKNDIDEWAKLWHFRTIKEG | soluble |
| MGHHHHHHSHMSENELSAEDTAFLEKAFELAQEALDEDEVPVGCVFVVNGTEIGRGRNRVNETGDPTRHAEMVAVTEMWKEHGTGCEDLLKKSTLYVSLEPCIMCSSAMYQLGIRKMVYGAENPRFGGVRSVGSAEKYRMEDNVQIVAGIWSERSVAMLKTFYEKLNPFAPPEKRKTKKPKLDEIK | not soluble |
| MGHHHHHHSHMSHGHSHGGGGCRCAAEREEPPEQRGLAYGLYLRIDLERLQCLNESREGSGRGVFKPWEERTDRSKFVESDADEELLFNIPFTGNVKLKGIIIMGEDDDSHPSEMRLYKNIPQMSFDDTEREPDQTFSLNRDLTGELEYATKISRFSNVYHLSIHISKNFGADTTKVFYIGLRGEWTELRRHEVTICNYEASANPADHRVHQVTPQTHFIS | not soluble |
| MGHHHHHHSHMSSMQRRAFVALGLMAMLAACSPAKKEDAAAGQTPIKLATDWRAQAELGGYYQALATGEYKKRGLDVTLIQGGPAVNVPQLLATGAVDVGVGSNSFIIMNLAKENAPVKAVAAFMQKDPQVLIAHPDQGINGIADMKGRPILLSDASVTAFWVWLKAKYGFTDDQVRKYNYSSAPFLADKRVVQQGYATSEPYLIEKEGKIKPAVFLLADSGYPAYASFALVPDSLIAKNPAAVQAFVEATAAGWTSYLYGDPKPGDAAILKDNPEMTQDVLDQAREKMRSYGIVSANGGRGDIGQMTDARWAEFFKVASEQGVYPADMDYKKAYTLQFLPKGP | not soluble |
| MGHHHHHHSHMTDPSKLAVAVVCSSNMNRSMEAHNFLAKKGFNVRSYGTGERVKLPGMAFDKPNVYEFGTKYEDIYRDLESKDKEFYTQNGLLHMLDRNRRIKKCPERFQDTKEQFDIIVTVEERVYDLVVMHMESMESVDNRPVHVLNVDVVDNAEDALMGAFVITDMINMMAKSTDLDNDIDELIQEFEERRKRVILHSVLFY | soluble |
| MGHHHHHHSHMVKDIIIASFYKFIPLNDFESLREPILTKMHEIGIKGTIILAHEGVNGGFAGNREQMNVFYDYLRSDSRFADLHFKETYDNKNPFDKAKVKLRKEIVTMGVQKVDPSYNAGTYLSPEEWHQFIQDPNVILLDTRNDYEYELGTFKNAINPDIENFREFPDYVQRNLIDKKDKKIAMFCTGGIRCEKTTAYMKELGFEHVYQLHDGILNYLESIPESESLWEGKCFVFDDRVAVDQKLDRVYPQLPQDYKYEREQK | soluble |
| MGHHHHHHSHMYSEIQRERADIGGLMARPEYREWNPELIKPKKLLNPVKASRSHQELHRELLMNHRRGLGVDSKPELQRVLEHRRRNQLIKKKKEELEAKRLQCPFEQELLRRQQRLNQLEKPPEKEEDHAPEFIKVRENLRRIATLTSEEREL | not soluble |
| MGHHHHHHSHNFHYGAGHPMKPHRLALTHSLVLHYGLYKKMIVFKPYQASQHDMCRFHSEDYIDFLQRVSPTNMQGFTKSLNAFNVGDDCPVFPGLFEFCSRYTGASLQGATQLNNKICDIAINWAGGLHHAKKFEASGFCYVNDIVIGILELLKYHPRVLYIDIDIHHGDGVQEAFYLTDRVMTVSFHKYGNYFFPGTGDMYEVGAESGRYYCLNVPLRDGIDDQSYKHLFQPVINQVVDFYQPTCIVLQCGADSLGCDRLGCFNLSIRGHGECVEYVKSFNIPLLVLGGGGYTVRNVARCWTYETSLLVEEAISEELPYSEYFEYFAPDFTLHPDVSTRIENQNSRQYLDQIRQTIFENLKMLNHAPSVQIHDVPADLLTYDRTD | not soluble |
| MGHHHHHHSHPPTAPDRATAVATASRLGPYVLLEPEEGGRAYQALHCPTGTEYTCKVYPVQEALAVLEPYARLPPHKHVARPTEVLAGTQLLYAFFTRTHGDMHSLVRSRHRIPEPEAAVLFRQMATALAHCHQHGLVLRDLKLCRFVFADRERKKLVLENLEDSCVLTGPDDSLWDKHACPAYVGPEILSSRASYSGKAADVWSLGVALFTMLAGHYPFQDSEPVLLFGKIRRGAYALPAGLSAPARCLVRCLLRREPAERLTATGILLHPWLRQDPMPLAPTRSHLWEAAQVVPDGLGLDEARE | not soluble |
| MGHHHHHHSHSKKPYIVTIACTKGGSAKSTNAANIGAFCADHGLRTLLIDTDTQPTLSSYYSLAKTAPGGIYEFLLQRDVEPSHIVSQTSIKNLDLIQSNDPSNNVSHMLRNAPDGSIRFSHLIKSINNYDVIVIDTRGTRDITVDMSVLAADILFCPILPQILSAKEFIRGTIGMYQDLQTFESFGFKLPPLKAIANGVDNTNDVKFVMQKLHTLFANTFDESKTLLDFSIPYHVAYREAVTYALPVYRHSAVEYPVMQQLCC | not soluble |
| MGHVDREDLLNVIRHELRLEDDDGPGLCSRLLLNPDRKCRAGGLPLDFRLKNGDLMDDGDAGFDDIYEIPLYEEPIHTRTLINDSLALRTAEKIKEEGRRDNFYTGPLDELFVKQEVNWPPKTPISTEKSAIERYLEENSANLNNPLGEYSKFAATTTDPSRQIEIIIPMSCDEEIGFKTLKIEVLTTARIREVIGYCLLQYYLTFDSYLPGEVDDYQFYLAEEDGEIEHELPPLDSSKLVGQVGFTCLGLVSRIKKNGNSRQKRAVAVWFVDKDQYVIEVDNMEKPLRWLRDEAFRLREETVKEREPLFQGLLDIKEYYMEAVDNFDVKLDLEASISSARSLEFVMIRKNSSRAGFHPRGGRYGRQMSAMLTLKMPNSPIAAGPMTPLPTVMEESPAVAGTSNGFGFPKAESCGAIASTPGVTWNDDGGQLSSFIVQRIHKFKPKWKANLSTVV | not soluble |
| MGIPSDFSNTGLTGFNVSSTKLVKIEQQYKGVKGKKFISPGGGKFVRIDDPGAVDSNGLRTADASNTSISLETGNTWLPRLHADGTLTCGGKCAWLECTNVTIPKNKRLWFRYAFLRFSSLPADSFSVLLCFPNDDTSVPPLPPYWICSVKELQENRGNINQTDWTECFVEIDKNADFHGTLRWVVATGHNLADQNSIPDNTRFTRPGCLLIDAIDIR | not soluble |
